B1: ZFYVE27^WT (full-length ZFYVE27, E2- or c-Myc-tagged, in mammalian cells) (natural protein, human, UniProt Q5T4F4-2 1-404, looked up)
chain: MQTSEREGSGPELSPSVMPEAPLESPPFPTKSPAFDLFNLVLSYKRLEIYLEPLKDAGDGVRYLLRWQMPLCSLLTCLGLNVLFLTLNEGAWYSVGALMISVPALLGYLQEVCRARLPDSELMRRKYHSVRQEDLQRGRLSRPEAVAEVKSFLIQLEAFLSRLCCTCEAAYRVLHWENPVVSSQFYGALLGTVCMLYLLPLCWVLTLLNSTLFLGNVEFFRVVSEYRASLQQRMNPKQEEHAFESPPPPDVGGKDGLMDSTPALTPTEDLTPGSVEEAEEAEPDEEFKDAIEEDDEGAPCPAEDELALQDNGFLSKNEVLRSKVSRLTERLRKRYPTNNFGNCTGCSATFSVLKKRRSCSNCGNSFCSRCCSFKVPKSSMGATAPEAQRETVFVCASCNQTLSK
notes: numbers count on: this 404-residue isoform; Each copy carries only one tag: E2 (vector pQM-N-Tag A) or six c-Myc tags (vector pCS2-myc); The two differently tagged copies are written as one molecule because the protein is tested against itself; With the E2-tagged deletion constructs the c-Myc copy was used; with GFP-Spastin and in the sucrose gradient the E2 copy; also called E2-ZFYVE27^WT; …
B2: endogenous ZFYVE27 of NSC34 cells (natural protein, mouse (endogenous in NSC34), UniProt Q3TXX3 1-415, looked up)
chain: MQTSDRDLSGPEASPSGMPEVLSECPPAPTKSAAFDLFNLVLSYKRLEIYLEPLKDAGDGVRYLLRWQMPLCSLLTCLGLNILFLTLNEGAWYSMGALMISVPALLGYLQEVCRGQLPESELMRRKYHSIRQEDLQRVRLSRVHLSRPEAVAEVKSFLIQLEAFLARLCYTCESAYRVLHWENPVVSSQFYGALLGMVCMLYLLPLCWVLALLNSTLFLGNGDFFRVVCEYRACLQRRMNPRQEECACESSALQGAGGRGLLDSSPAPTPTEDLTPGSVEEAEEAEPDEEFKDAIEETHLVVLEDEEGTPCPAEDELTLQDNGFLSKNEVLRSKVSRLTERLRKRYPTNNFGNCAGCAATFSVLKKRRSCSNCGNSFCSRCCSFKVPRSSMGATAPEAQRETVCVCASCNQTLSK
notes: ZFYVE27 expressed endogenously in NSC34 (a mouse embryonic spinal cord-neuroblastoma hybrid cell line); also called mo-ZFYVE27; di-ZFYVE27

Key:
[1] = target: the molecule itself; assay: SDS-PAGE and immunoblot (SDS-resistant dimer); lysates of NIH-3T3 overexpressing E2-ZFYVE27^WT or c-Myc-ZFYVE27^WT, immunoblot with ZFYVE27 antibody
[2] = target: the molecule itself; assay: SDS-PAGE and immunoblot (SDS-resistant dimer); NSC34 cell extract, cytosolic (S-100) and membrane (P-100) fractions, immunoblot with ZFYVE27 antibody

| Protein | stoichiometry N [1] | stoichiometry N [2] |
| --- | --- | --- |
| B1 | 2 |  |
| B2 |  | 2 |
